{
  "source": "patent US4010251A",
  "about": "“Scanning agent composition and use in imaging liver and for biliary function” (priority 1974, dated 1977)",
  "key": {"liver": {"tested_on": "liver", "details": "human, in vivo; cited from earlier work"}, "rat and rabbit liver": {"tested_on": "rat and rabbit liver", "experiment": "In vivo animal hepatic imaging after intravenous injection of labelled compounds", "protocol": "Adult male Wistur rats weighing about 400g and male New Zealand rabbits weighing about 2.5kg. were used in the in vivo animal imaging studies. After intravenous injection of the labelled compounds (100-400uCi) as a bolus into experimental animals, hepatic imaging was performed on a PhoGamma III scintillation camera (Nuclear Chicago Corp., Des Plaines, Ill.) using a 140keV parallel collimator. Images were recorded on Polaroid type 55 film."}, "[1]": {"details": "in vivo; cited from earlier work"}},
  "data": [
    {"molecule": "O=C(O)c1c(Cl)c(Cl)c(Cl)c(Cl)c1-c1c2cc(I)c(=O)c(I)c-2oc2c(I)c(O)c(I)cc12", "note": "[^131 I-rose bengal]", "values": [
      {"measurement": "20:5 minutes ratio of blood ^131 I-rose bengal concentrations", "setting": "liver", "result": "0.39-0.51"},
      {"measurement": "time by which biliary excretion has begun", "setting": "liver", "result": "≤ 20", "unit": "min"},
      {"measurement": "time for maximal concentration in the liver", "setting": "liver", "result": "~30", "unit": "min"}
    ]},
    {"molecule": "Radiolabelled DTBG: Radiolabelled desialylated thyroxine-binding globulin; radiolabel not specified at that place (protein, UniProt P05543 21-415, looked up, desialylated; radiolabelled, radiolabel not specified at that place) Thyroxine-binding globulin: ASPEGKVTACHSSQPNATLYKMSSINADFAFNLYRRFTVETPDKNIFFSPVSISAALVMLSFGACCSTQTEIVETLGFNLTDTPMVEIQHGFQHLICSLNFPKKELELQIGNALFIGKHLKPLAKFLNDVKTLYETEVFSTDFSNISAAKQEINSHVEMQTKGKVVGLIQDLKPNTIMVLVNYIHFKAQWANPFDPSKTEDSSSFLIDKTTTVQVPMMHQMEQYYHLVDMELNCTVLQMDYSKNALALFVLPKEGQMESVEAAMSSKTLKKWNRLLQKGWVDLFVPKFSISATYDLGATLLKMGIQHAYSENADFSGLTEDNGLKLSNAAHKAVLHIGEKGTEAAAVPEVELSDQPENTFLHPIIQIDRSFMLLILERSTRSILFLGKVVNPTEA", "values": [
      {"measurement": "liver imaging after intravenous injection", "setting": "rat and rabbit liver; scintillation camera", "result": "effective as a liver imaging agent"}
    ]},
    {"molecule": "^131 I-DTBG: ^131 I labelled desialylated thyroxine-binding globulin (protein, UniProt P05543 21-415, looked up, 131I label; desialylated) Thyroxine-binding globulin: ASPEGKVTACHSSQPNATLYKMSSINADFAFNLYRRFTVETPDKNIFFSPVSISAALVMLSFGACCSTQTEIVETLGFNLTDTPMVEIQHGFQHLICSLNFPKKELELQIGNALFIGKHLKPLAKFLNDVKTLYETEVFSTDFSNISAAKQEINSHVEMQTKGKVVGLIQDLKPNTIMVLVNYIHFKAQWANPFDPSKTEDSSSFLIDKTTTVQVPMMHQMEQYYHLVDMELNCTVLQMDYSKNALALFVLPKEGQMESVEAAMSSKTLKKWNRLLQKGWVDLFVPKFSISATYDLGATLLKMGIQHAYSENADFSGLTEDNGLKLSNAAHKAVLHIGEKGTEAAAVPEVELSDQPENTFLHPIIQIDRSFMLLILERSTRSILFLGKVVNPTEA", "values": [
      {"measurement": "clearance of the iodine label by the kidneys noted, time post-injection", "setting": "rat and rabbit liver; in vivo", "result": "20 or 30 minutes"},
      {"measurement": "uptake and concentration in the liver", "setting": "rat and rabbit liver; in vivo", "result": "rapidly taken up by the hepatocytes"}
    ]},
    {"molecule": "DTBG: desialylated thyroxine-binding globulin from pooled human serum (protein, UniProt P05543 21-415, looked up, desialylated) Thyroxine-binding globulin: ASPEGKVTACHSSQPNATLYKMSSINADFAFNLYRRFTVETPDKNIFFSPVSISAALVMLSFGACCSTQTEIVETLGFNLTDTPMVEIQHGFQHLICSLNFPKKELELQIGNALFIGKHLKPLAKFLNDVKTLYETEVFSTDFSNISAAKQEINSHVEMQTKGKVVGLIQDLKPNTIMVLVNYIHFKAQWANPFDPSKTEDSSSFLIDKTTTVQVPMMHQMEQYYHLVDMELNCTVLQMDYSKNALALFVLPKEGQMESVEAAMSSKTLKKWNRLLQKGWVDLFVPKFSISATYDLGATLLKMGIQHAYSENADFSGLTEDNGLKLSNAAHKAVLHIGEKGTEAAAVPEVELSDQPENTFLHPIIQIDRSFMLLILERSTRSILFLGKVVNPTEA", "values": [
      {"measurement": "half-life in the circulation", "setting": "[1]", "result": "4 to 5", "unit": "min"}
    ]}
  ]
}
